Results as given in patent US20240382605A1, “CONJUGATED OLIGONUCLEOTIDES AND USES THEREOF” (Ionis Pharmaceuticals, Inc., priority 2021, published 2024).

How the values were obtained:
[1] = Example 8: hematology assays / blood cell counts in hTFR^KI/+ knock in mice; type: in vivo, mouse; settings: for BAS (basophils) / LYM (lymphocytes) / MON (monocytes) / NEU (neutrophils) / PLT (platelets) / RETI (reticulocytes): day 15; for Mean corpuscular volume (MCV) / hematocrit (HCT) / hemoglobin (HGB) / mean corpuscular hemoglobin (MCH) / mean corpuscular hemoglobin concentration (MCHC) / red blood cell (RBC) count / white blood cell (WBC) count: blood day 15;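 as to all read-outs here: mice given conjugated modified oligonucleotide, three doses total, blood cell counts measured at sacrifice, PBS-treated group of 4 mice serves as negative control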
Source text: (§1) Each mouse received an intravenous (i.v.) administration or subcutaneous (s.c.) administration of conjugated modified oligonucleotide for a total of 3 doses (on Days 1, 5, and 9) at doses indicated in the table below. […] A group of 4 mice received PBS as a negative control.
Blood obtained from mice on the day the mice were sacrificed (day 15) were sent to IDEXX BioResearch for measurement of blood cell counts. Counts taken include red blood cell (RBC) count, white blood cell (WBC) count, hemoglobin (HGB), hematocrit (HCT), Mean corpuscular volume (MCV), mean corpuscular hemoglobin (MCH), and mean corpuscularhemoglobin concentration (MCHC). Individual white blood cell counts, such as that of monocytes (MON), neutrophils (NEU), lymphocytes (LYM), eosinophils (EOS), basophils (BAS), reticulocytes, and platelets were evaluated.

[2] = test system: mouse DMPK RNA; assay: Example 8: mouse DMPK RNA and ED50 in tissues of hTFR^KI/+ knock in mice, multiple dose (RTPCR, day 15); type: in vivo;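 also: conjugated oligonucleotide given as three doses to hTFR^KI/+ knock-in mice, tissues taken at day 15 and mouse DMPK RNA quantified by real-time RT-PCR against PBS-treated controls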
Procedure: The activity and tolerability of modified oligonucleotides conjugated to CD71 bicycle ligands were tested in hTFR^KI/+ knock in mice (described herein above).
as §1
The mice were sacrificed six days post final administration (on day 15), and RNA was extracted from various muscle tissues (including quadriceps (Quad), tibialis anterior (TA), diaphragm, triceps, heart, gastrocnemius (gastroc)), aorta, sciatic nerve, and liver tissue for quantitative real time RTPCR analysis to measure amount of mouse DMPK RNA using mouse primer probe set RTS3181 (described herein above).

[3] = Example 8: body and organ weights in hTFR^KI/+ knock in mice; type: in vivo, mouse; settings: for Organ weight Kidney / Organ weight Liver / Organ weight Spleen: day 15
Procedure: as §1
Liver, kidney, and spleen weights were measured on the day the mice were sacrificed (day 15), and the average organ weights for each group are presented in the tables below.

[4] = Example 8: plasma chemistry markers in hTFR^KI/+ knock in mice; type: in vivo, mouse; settings: plasma day 15;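 also: plasma levels read on an automated clinical chemistry analyzer after three doses of conjugated modified oligonucleotide, with a PBS-treated group as negative control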
Source text: as §1
To evaluate the effect of modified oligonucleotides on liver and kidney function, plasma levels of albumin (ALB), alanine aminotransferase (ALT), aspartate aminotransferase (AST), blood urea nitrogen (BUN), total bilirubin (TBIL), total Protein (PROT), Creatine (CREAT), and Creatine Kinase (CK) were measured on the day the mice were sacrificed (day 15) using an automated clinical chemistry analyzer (Hitachi Olympus AU400c, Melville, NY).

[5] = reduction of mouse DMPK RNA, i.v., 3 doses on Days 1, 5, 9

1590463-BCY17896: modified oligonucleotide 1590463 conjugated to CD71 bicycle ligand BCY17896 through a BCN linker (CPXDAYLGCXSYCX; not fully specified; non-natural residues; cyclised or stapled)
BAS (basophils) ([1]; 1 mg/kg i.v.): 0.07%
LYM (lymphocytes) ([1]; 1 mg/kg i.v.): 85%
MON (monocytes) ([1]; 1 mg/kg i.v.): 5%
NEU (neutrophils) ([1]; 1 mg/kg i.v.): 8%
PLT (platelets) ([1]; 1 mg/kg i.v.): 1170 10^9/L
RETI (reticulocytes) ([1]; 1 mg/kg i.v.): 439 10^3/μL
BAS (basophils) ([1]; 10 mg/kg i.v.): 0.07%
LYM (lymphocytes) ([1]; 10 mg/kg i.v.): 84%
MON (monocytes) ([1]; 10 mg/kg i.v.): 6%
NEU (neutrophils) ([1]; 10 mg/kg i.v.): 8%
PLT (platelets) ([1]; 10 mg/kg i.v.): 1087 10^9/L
RETI (reticulocytes) ([1]; 10 mg/kg i.v.): 389 10^3/μL
Diaphragm ED50 [2, 5]: 1.4 mg/kg
Gastrocnemius ED50 [2, 5]: 2.9 mg/kg
Quadriceps ED50 [2, 5]: 2.6 mg/kg
Tibialis Anterior ED50 [2, 5]: 3.3 mg/kg
Body weight Day 1 ([3]; 1 mg/kg i.v.): 27 g
Body weight Day 15 ([3]; 1 mg/kg i.v.): 28 g
Organ weight Kidney ([3]; 1 mg/kg i.v.): 0.35 g
Organ weight Liver ([3]; 1 mg/kg i.v.): 1.49 g
Organ weight Spleen ([3]; 1 mg/kg i.v.): 0.07 g
Body weight Day 1 ([3]; 10 mg/kg i.v.): 24 g
Body weight Day 15 ([3]; 10 mg/kg i.v.): 25 g
Organ weight Kidney ([3]; 10 mg/kg i.v.): 0.33 g
Organ weight Liver ([3]; 10 mg/kg i.v.): 1.39 g
Organ weight Spleen ([3]; 10 mg/kg i.v.): 0.07 g

1590463 BCY17896 (CPXDAYLGCXSYCX; not fully specified; non-natural residues; cyclised or stapled)
Mean corpuscular volume (MCV) ([1]; i.v. 1 mg/kg on Days 1, 5, 9): 40 fL
hematocrit (HCT) ([1]; i.v. 1 mg/kg on Days 1, 5, 9): 47%
hemoglobin (HGB) ([1]; i.v. 1 mg/kg on Days 1, 5, 9): 15 g/dL
mean corpuscular hemoglobin (MCH) ([1]; i.v. 1 mg/kg on Days 1, 5, 9): 13 pg
mean corpuscular hemoglobin concentration (MCHC) ([1]; i.v. 1 mg/kg on Days 1, 5, 9): 32 g/dL
red blood cell (RBC) count ([1]; i.v. 1 mg/kg on Days 1, 5, 9): 12 10^12/L
white blood cell (WBC) count ([1]; i.v. 1 mg/kg on Days 1, 5, 9): 8 10^3/μL
Mean corpuscular volume (MCV) ([1]; i.v. 10 mg/kg on Days 1, 5, 9): 41 fL
hematocrit (HCT) ([1]; i.v. 10 mg/kg on Days 1, 5, 9): 47%
hemoglobin (HGB) ([1]; i.v. 10 mg/kg on Days 1, 5, 9): 15 g/dL
mean corpuscular hemoglobin (MCH) ([1]; i.v. 10 mg/kg on Days 1, 5, 9): 13 pg
mean corpuscular hemoglobin concentration (MCHC) ([1]; i.v. 10 mg/kg on Days 1, 5, 9): 31 g/dL
red blood cell (RBC) count ([1]; i.v. 10 mg/kg on Days 1, 5, 9): 11 10^12/L
white blood cell (WBC) count ([1]; i.v. 10 mg/kg on Days 1, 5, 9): 9 10^3/μL
Diaphragm mouse DMPK RNA (% control) ([2]; i.v. 1 mg/kg on Days 1, 5, 9): 60 % control
Gastrocnemius mouse DMPK RNA (% control) ([2]; i.v. 1 mg/kg on Days 1, 5, 9): 75 % control
Heart mouse DMPK RNA (% control) ([2]; i.v. 1 mg/kg on Days 1, 5, 9): 81 % control
Quadriceps mouse DMPK RNA (% control) ([2]; i.v. 1 mg/kg on Days 1, 5, 9): 74 % control
Tibialis Anterior mouse DMPK RNA (% control) ([2]; i.v. 1 mg/kg on Days 1, 5, 9): 84 % control
Diaphragm mouse DMPK RNA (% control) ([2]; i.v. 10 mg/kg on Days 1, 5, 9): 16 % control
Gastrocnemius mouse DMPK RNA (% control) ([2]; i.v. 10 mg/kg on Days 1, 5, 9): 28 % control
Heart mouse DMPK RNA (% control) ([2]; i.v. 10 mg/kg on Days 1, 5, 9): 56 % control
Quadriceps mouse DMPK RNA (% control) ([2]; i.v. 10 mg/kg on Days 1, 5, 9): 23 % control
Tibialis Anterior mouse DMPK RNA (% control) ([2]; i.v. 10 mg/kg on Days 1, 5, 9): 28 % control
Creatine (CREAT) ([4]; i.v. 1 mg/kg on Days 1, 5, 9): 0.16 mg/dL
alanine aminotransferase (ALT) ([4]; i.v. 1 mg/kg on Days 1, 5, 9): 40 U/L
albumin (ALB) ([4]; i.v. 1 mg/kg on Days 1, 5, 9): 2.82 g/dL
aspartate aminotransferase (AST) ([4]; i.v. 1 mg/kg on Days 1, 5, 9): 111 U/L
blood urea nitrogen (BUN) ([4]; i.v. 1 mg/kg on Days 1, 5, 9): 24 mg/dL
total Protein (PROT) ([4]; i.v. 1 mg/kg on Days 1, 5, 9): 4.83 g/dL
total bilirubin (TBIL) ([4]; i.v. 1 mg/kg on Days 1, 5, 9): 0.12 mg/dL
Creatine (CREAT) ([4]; i.v. 10 mg/kg on Days 1, 5, 9): 0.16 mg/dL
alanine aminotransferase (ALT) ([4]; i.v. 10 mg/kg on Days 1, 5, 9): 34 U/L
albumin (ALB) ([4]; i.v. 10 mg/kg on Days 1, 5, 9): 2.70 g/dL
aspartate aminotransferase (AST) ([4]; i.v. 10 mg/kg on Days 1, 5, 9): 119 U/L
blood urea nitrogen (BUN) ([4]; i.v. 10 mg/kg on Days 1, 5, 9): 22 mg/dL
total Protein (PROT) ([4]; i.v. 10 mg/kg on Days 1, 5, 9): 4.57 g/dL
total bilirubin (TBIL) ([4]; i.v. 10 mg/kg on Days 1, 5, 9): 0.11 mg/dL

1590463 BCY17901 (CPXDAYLGCXSYCEPWX; not fully specified; non-natural residues; cyclised or stapled)
Mean corpuscular volume (MCV) ([1]; i.v. 1 mg/kg on Days 1, 5, 9): 40 fL
hematocrit (HCT) ([1]; i.v. 1 mg/kg on Days 1, 5, 9): 48%
hemoglobin (HGB) ([1]; i.v. 1 mg/kg on Days 1, 5, 9): 15 g/dL
mean corpuscular hemoglobin (MCH) ([1]; i.v. 1 mg/kg on Days 1, 5, 9): 13 pg
mean corpuscular hemoglobin concentration (MCHC) ([1]; i.v. 1 mg/kg on Days 1, 5, 9): 31 g/dL
red blood cell (RBC) count ([1]; i.v. 1 mg/kg on Days 1, 5, 9): 12 10^12/L
white blood cell (WBC) count ([1]; i.v. 1 mg/kg on Days 1, 5, 9): 7 10^3/μL
Mean corpuscular volume (MCV) ([1]; i.v. 10 mg/kg on Days 1, 5, 9): 41 fL
hematocrit (HCT) ([1]; i.v. 10 mg/kg on Days 1, 5, 9): 47%
hemoglobin (HGB) ([1]; i.v. 10 mg/kg on Days 1, 5, 9): 15 g/dL
mean corpuscular hemoglobin (MCH) ([1]; i.v. 10 mg/kg on Days 1, 5, 9): 13 pg
mean corpuscular hemoglobin concentration (MCHC) ([1]; i.v. 10 mg/kg on Days 1, 5, 9): 31 g/dL
red blood cell (RBC) count ([1]; i.v. 10 mg/kg on Days 1, 5, 9): 11 10^12/L
white blood cell (WBC) count ([1]; i.v. 10 mg/kg on Days 1, 5, 9): 9 10^3/μL
Diaphragm mouse DMPK RNA (% control) ([2]; i.v. 1 mg/kg on Days 1, 5, 9): 57 % control
Gastrocnemius mouse DMPK RNA (% control) ([2]; i.v. 1 mg/kg on Days 1, 5, 9): 74 % control
Heart mouse DMPK RNA (% control) ([2]; i.v. 1 mg/kg on Days 1, 5, 9): 75 % control
Quadriceps mouse DMPK RNA (% control) ([2]; i.v. 1 mg/kg on Days 1, 5, 9): 79 % control
Tibialis Anterior mouse DMPK RNA (% control) ([2]; i.v. 1 mg/kg on Days 1, 5, 9): 71 % control
Diaphragm mouse DMPK RNA (% control) ([2]; i.v. 10 mg/kg on Days 1, 5, 9): 14 % control
Gastrocnemius mouse DMPK RNA (% control) ([2]; i.v. 10 mg/kg on Days 1, 5, 9): 15 % control
Heart mouse DMPK RNA (% control) ([2]; i.v. 10 mg/kg on Days 1, 5, 9): 44 % control
Quadriceps mouse DMPK RNA (% control) ([2]; i.v. 10 mg/kg on Days 1, 5, 9): 14 % control
Tibialis Anterior mouse DMPK RNA (% control) ([2]; i.v. 10 mg/kg on Days 1, 5, 9): 14 % control
Creatine (CREAT) ([4]; i.v. 1 mg/kg on Days 1, 5, 9): 0.15 mg/dL
alanine aminotransferase (ALT) ([4]; i.v. 1 mg/kg on Days 1, 5, 9): 65 U/L
albumin (ALB) ([4]; i.v. 1 mg/kg on Days 1, 5, 9): 2.76 g/dL
aspartate aminotransferase (AST) ([4]; i.v. 1 mg/kg on Days 1, 5, 9): 107 U/L
blood urea nitrogen (BUN) ([4]; i.v. 1 mg/kg on Days 1, 5, 9): 23 mg/dL
total Protein (PROT) ([4]; i.v. 1 mg/kg on Days 1, 5, 9): 4.73 g/dL
total bilirubin (TBIL) ([4]; i.v. 1 mg/kg on Days 1, 5, 9): 0.13 mg/dL
Creatine (CREAT) ([4]; i.v. 10 mg/kg on Days 1, 5, 9): 0.15 mg/dL
alanine aminotransferase (ALT) ([4]; i.v. 10 mg/kg on Days 1, 5, 9): 35 U/L
albumin (ALB) ([4]; i.v. 10 mg/kg on Days 1, 5, 9): 2.63 g/dL
aspartate aminotransferase (AST) ([4]; i.v. 10 mg/kg on Days 1, 5, 9): 98 U/L
blood urea nitrogen (BUN) ([4]; i.v. 10 mg/kg on Days 1, 5, 9): 23 mg/dL
total Protein (PROT) ([4]; i.v. 10 mg/kg on Days 1, 5, 9): 4.53 g/dL
total bilirubin (TBIL) ([4]; i.v. 10 mg/kg on Days 1, 5, 9): 0.14 mg/dL
